Experiment [1] concerns the target T1, human CD3e/d (human, UniProt P07766 23-126; P04234 22-105).
T1 construct: Bought soluble protein; also called hCD3e/d; human CD3/ed (Sino CT038-H2508H)
As to the kind of experiment: SPR (Carterra LSA), mAb on chip. The method in brief:
(§1)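 Purified mAbs amine-coupled (EDC/S-NHS) at 10 μg/mL in 10 mM NaOAc pH 4.25 onto an HC-30M chip, with benchmark and negative-control mAbs; analyte flowed over the array. Double-referenced sensorgrams fitted globally to a 1:1 Langmuir model for ka, kd and KD.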

Experiment [2] concerns the target T2, human CD3e/g (human, UniProt P07766 23-126; P09693 23-116).
T2 construct: Bought soluble protein; also called hCD3e/g; human CD3e/g (Acro CDD-C52W4)
The experiment can be described thus: SPR (Carterra LSA), mAb on chip. The gist of the method:
as §1

T1 sequence (P07766 23-126, chain 1 of 2): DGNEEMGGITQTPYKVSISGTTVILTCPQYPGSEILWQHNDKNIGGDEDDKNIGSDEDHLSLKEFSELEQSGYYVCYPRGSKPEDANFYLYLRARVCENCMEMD
T1 sequence (P04234 22-105, chain 2 of 2): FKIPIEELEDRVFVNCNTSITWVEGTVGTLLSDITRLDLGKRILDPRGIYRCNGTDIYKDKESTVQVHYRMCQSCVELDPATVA
T2 sequence (P07766 23-126, chain 1 of 2): as the sequence (P07766 23-126, chain 1 of 2) above
T2 sequence (P09693 23-116, chain 2 of 2): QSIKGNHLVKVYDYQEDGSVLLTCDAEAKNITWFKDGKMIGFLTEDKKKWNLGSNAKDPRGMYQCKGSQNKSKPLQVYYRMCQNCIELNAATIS

B1: mAb 90 (antibody, V domains shown)
VH: EVQLVESGGGLVQPGGSLKLSCAASGFTFSGSAMHWVRQASGKGLEWVGRIRTKPNSYATSYAASVKDRFTISRDDSKNTAYLQMNSLKTEDTAVYYCIRGELEPWGQGTLVTVSS
VL: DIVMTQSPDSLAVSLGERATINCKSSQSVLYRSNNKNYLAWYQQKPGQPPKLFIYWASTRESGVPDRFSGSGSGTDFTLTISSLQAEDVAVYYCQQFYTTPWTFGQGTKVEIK
notes: VH and VL only
By Kd is commonly meant the concentration at which binding is half-saturated. Read a high Kd as a looser complex. B1: the Kd in experiment [1] is 33.3 nM; in experiment [2], 41 nM.

B2: mAb 99 (antibody, V domains shown)
VH: QGQLVESGGGVVQPGRSLRLSCAASGFTFRGFGMHWVRQAPGKGLEWVAIIYYDGKNKYYADSVKGRFTISRDNSKNTLYLQMNSLRAEDTAVYYCAKGGGYNWFDPWGQGTLVTVSS
VL: DIQMTQSPSSLSASVGDRVTITCRASQSISTYLNWYQQKPGKAPKLLIYSASSLQSGVPSRFSGSGSGTDFTLTISNLQPEDFAIYYCQRSYSPPFTFGPGTKLDIR
notes: VH and VL only
In the case of B2, the values for the Kd in experiment [1] and in experiment [2] were 8.92 nM and 11.6 nM, respectively.

B3: mAb 95 (antibody, V domains shown)
VH: QAHLVESGGGVVQPGRSLRLSCSASGFTFSGYGMHWVRQAPGKGLEWVALIYFDGRNKYYADSVKGRFTISRDNSKNTLYLQMNSLRAEDTAVYYCARGGGYNWFDPWGQGTLVTVSS
VL: DIQMTQSPSSLSASVGDRVTITCRASQSINNYLSWYQQKPGKAPKLLIYLASNLQSGVPSRFSGSGSGTDFTLTISSLQPEDFATYYCQLSYRSPFTFGPGTKVDVK
notes: VH and VL only
Turning to B3, the Kd in experiment [1] is 1.79 nM; in experiment [2], 9.22 nM.

B4: mAb 93 (antibody, V domains shown)
VH: QVQLVESGGGVVQPGRSLRLSCAASGFTFRGYGMHWVRQAPGKGLEWVAIIYYNGNNKYYADSVKGRFTISRDNSKNTLYLQMNSLRAEDTAVYYCARGGGYNWFDPWGQGTLVTVSS
VL: DIQMTQSPSSLSASVGDRVTITCRASQSISNYLNWYQQEPGKAPKLLIYTASSLQSGVPSRFSGSGSGTAFTLTISSLQPEDFAIYYCQRSSSPPFTFGPGTKLDIK
notes: VH and VL only
As to B4, the Kd in experiment [1] was 47.8 nM; in experiment [2] it was 35.8 nM.

B5: mAb 94 (antibody, V domains shown)
VH: QVHLVESGGGVVQPGRSLRLSCSASGFTFSGYGMHWVRQAPGKGLEWVALIYFDGRNKYYADSVKGRFTISRDNSKNTLYLQMNSLRAEDTAVYYCARGGGYNWFDPWGQGTLVTVSS
VL: DIQMTQSPSSLSASVGDRVTITCRASQSISNYLNWYQQKPGKAPKLLIYLASSLQSGVPSRFSGSGSGTDFTLTINSLQPEDFASYYCQLSYSSPFTFGPGTKVDVN
notes: VH and VL only
On to B5, for which the Kd in experiment [1] was 1.57 nM; in experiment [2] it was 7.8 nM.

B6: mAb 100 (antibody, V domains shown)
VH: QVQLVESGGGVVQPGRSLRLSCVASGFTFRGYGMHWVRQAPGKGLEWVAIIYYDGKNKYYADSVKGRFTISRDNSKNTLYLQMNSLRVEDTALYYCARGGGYNWFDPWGQGTLVTVSS
VL: DIQMTQSPSSLSASVGDRVTITCRASQSISTYLNWYQQKPGKAPKLLIYTASSLQSGVPSRFSGSGSGTVFTLTISSLQPEDFAIYYCQRSYSPPFTFGPGTRLDIK
notes: VH and VL only
On to B6, for which the Kd stood at 20.5 nM in experiment [1] and 25.5 nM in experiment [2].

B7: mAb 98 (antibody, V domains shown)
VH: QVHLVESGGDVVQPGRSLRLSCSASGFTFSGYGMHWVRQAPGKGLEWVALIYFDGRNKYYADSVKGRFTISRDNSKNTLYLQMNSLRAEDTAVYYCARGGGYNWFDPWGQGTLVTVSS
VL: DIQMTQSPSSLSASVGDRVTITCRASQSINNYLNWYQQKPGKAPKLLIYLASSLQSGVPSRFSGSGSGTDFTLTISSLQPEDLATYYCQLSYSSPFTFGPGTKVDVK
notes: VH and VL only
B7: the results for the equilibrium dissociation constant (Kd) in experiment [1] and in experiment [2] were 9.71 nM and 11.2 nM, respectively.

B8: mAb 96 (antibody, V domains shown)
VH: QAHLVESGGGVVQPGRSLRLSCSASGFTFSGYGMHWVRQAPGKGLEWVSLIYFDGRNKYYADSVKGRFTISRDNSKNTLYLQMNSLRAEDTAVYYCARGGGYNWFDPWGQGTLVTVSS
VL: DIQMTQSPSSLSASVGDRVTITCRASQSINNYLSWYQQKPGKAPKLLIYLASNLQSGVPSRFSGNGSGTDFTLTISSLQPEDFATYYCQLSYRSPFTFGPGTKVDVK
notes: VH and VL only
For B8, the Kd in experiment [1] worked out at 7.73 nM; in experiment [2] it was 11.9 nM.

B9: mAb 97 (antibody, V domains shown)
VH: QGQLVESGGGVVQPGRSLRLSCAASGFTFRGYGMHWVRQAPGKGLEWVAIIYYDGKNKYYADSVKGRFTISRDNSKNTLYLQMNNLRVEDTAVYYCARGGGYNWFDPWGQGTLVTVSS
VL: DIQMTQSPSSLSASIGDRVTITCRASQSISNYLNWYQQKPGKAPKLLIYSASSLQSGVPSRFSGSGSGTDFTLTISNLQPEDFAIYYCQRSYSPPFTFGPGTKLDIR
notes: VH and VL only
B9: the Kd in experiment [1] was 16.5 nM; in experiment [2], 17.8 nM.

B10: mAb 101 (antibody, V domains shown)
VH: QGQLVESGGGVVQPGRSLRLSCAASGFTFRGFGMHWVRQAPGKGLEWVAIIYYDGKNKYYADSVKGRFTISRDNSKNMLYLQMNSLRAEDTAVYYCAKGGGYNWFDPWGQGTLVTVSS
VL: DIQMTQSPSSLSASVGDRVTITCRASQSISTYLNWYQQKPGKAPKLLIYSASSLQSGVPSRFSGSGSGTDFTLTISNLQPEDFAIYYCQRSYSPPFTFGPGTKLDIR
notes: VH and VL only
With B10, the Kd in experiment [1] turned out to be 9.06 nM; in experiment [2], 10.9 nM.

B11: mAb 276 (antibody, V domains shown)
VH: EVQLVESGGGLVQPGGSLRLSCAASGIPFSTYSMNWVRQAPGKGLEWVSYISGSSRTIYYADSVKGRFTISRDNAKKLLFLQMNSLRDEDTAVYYCAREGDYYDSSGWAYWGQGTLVTVSS
VL: DIQMTQSPSSLSASVGDRVTITCRASQNIYKYLNWYEQKPGRAPKLLIYTTSNLQSGVPSRFSGSGSGTAFTLIISSLQPEDFATYYCQQSYGSPYTFGQGTKLEIK
notes: VH and VL only
As for B11, the Kd came out at 15 nM in experiment [1] and 9.6 nM in experiment [2].

B12: mAb 283 (antibody, V domains shown)
VH: QVHLVQSGAEVKKPGASVRVSCKASGYTFTGYYIHWLRQAPGQGLEWLGWINPNSGGTNYSQKFRGRVTMTRDTSISTAYMELSRLRSDDTAVYYCARDKVWEQQLVGGFDYWGQGTLVTVSS
VL: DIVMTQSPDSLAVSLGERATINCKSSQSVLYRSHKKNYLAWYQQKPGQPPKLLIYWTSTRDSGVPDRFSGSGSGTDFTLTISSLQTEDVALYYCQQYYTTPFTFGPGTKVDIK
notes: VH and VL only
Take B12: the Kd was 160 nM in experiment [1] and 20 nM in experiment [2].

B13: mAb 292 (antibody, V domains shown)
VH: EVQLLESGGGLVQPGGSRRLSCAASGFTFSTYAMSWVRQAPGKGLEWVSVINGRGDDTNYADSVKGRFTISRDNSKNILFLQMNSLRAEDTAVYYCAKKYSYYYYYMDVWGKGTTVTVSS
VL: SYELTQPLSVSVALGQTARITCGGNNIGSKDVHWYQQKPGQAPVLVIYRDSNRPSGIPERFSGSNSGNTATLTISRAQAGDEADYYCQVWDSRTAVFGGGTQLTAL
notes: VH and VL only
Regarding B13, the Kd in experiment [1] came to 91 nM; in experiment [2], 47 nM.

B14: mAb 297 (antibody, V domains shown)
VH: EVQLLESGGGLVQPGGSLRLSCAASGFTFSSYAMNWVRQAPGKGLEWVSIISGGRRDDITYYAASVKGRFTISRDNSKNTLYLQMNSLRAEDTAVYYCAKMYNYYYYYIDVWGKGTTVTVSS
VL: SYELTQPLSVSVALGQTAKITCGGNNIGSKDVHWYQQKPGQAPVLVIYRDSNRPSGIPERFSGSNSGNTATLTISRAQAGDEADYYCQVWDSNTAVFGGGTQLTAL
notes: VH and VL only
In the case of B14, the Kd amounted to 66 nM in experiment [1] and 18 nM in experiment [2].

B15: mAb 296 (antibody, V domains shown)
VH: EVQLLESGGGLVQPGGSLRLSCAASGFTFSSYAMSWVRQAPGKGLEWVSAISGSGGTTYYTDSVKGRFTISRDNSKNTLYLQMNSLRAEDTAVYYCAKKYSYYYYYMDVWGKGTTVTVSS
VL: SYELTQPLSVSVALGQTARITCGGNNIGSKNVHWYQQKPGQAPVLVIYRDSNRPSGIPERFSGSNSGNTATLTISRAQAGDEADYYCQVWDSSTAVFGGGTQLTAL
notes: VH and VL only
Turning to B15, the results for the Kd in experiment [1] and in experiment [2] were 370 nM and 180 nM, respectively.

B16: mAb 303 (antibody, V domains shown)
VH: EVHLLESGGGLVQPGGSLRLSCAASGFTFSSYAMNWVRQAPGKGLEWISIISGGRRSGITYYAASVKGRFTISRDNSKNTLDLQMNSLRAEDTAVYYCAKMYNYYYYYIDVWGKGTTVTVSS
VL: SYELTQPLSVSVALGQTARITCGGNNIGSKDVHWYQQKPGQAPVLVIYRDSNRPSGIPERFSGSNSGNTATLTISRAQAGDEADYYCQVWDSNTAVFGGGTQLTAL
notes: VH and VL only
As to B16, the Kd in experiment [1] worked out at 47 nM; in experiment [2] it was 5.5 nM.

B17: mAb 106 (antibody, V domains shown)
VH: QVQLVESGGGVVQPGRSLRLSCAASGFTFRSYGMHWVRQAPGKGLEWVAIIWYNGNKKDYVDSVKGRFTISRDNSKNTLYLQMNSLRAEDTALYYCARGPGYNWFDPWGQGTLVTVSS
VL: DIQMTQSPPSLSASVGDRVTITCRASQRISSYLNWYQQKPGKAPKLLIYAASSLQSGVPSRFSGSGSGTDFTLTISSLQPEDFATYYCQQSDSFPLTFGGGTKVEII
notes: VH and VL only
On to B17, for which the Kd in experiment [1] came out at 17.1 nM; in experiment [2], 10.6 nM.

B18: mAb 72 (antibody, V domains shown)
VH: EVQLVDSGGGLVQPGGSLRLSCAASGFTFSSYWMSWVRQAPGKGLEWVANIKQDGSEKYYVDSVKGRFTISRDNVKNSLSLEMNSLRAEDTALYYCARDESSSWYWYFDLWGRGTLVTVSS
VL: DIQMTQSPSTLSASVGDRVTITCRASQSISKWLAWYQQKPGKAPKLLIYKASSLENGVPSRFSGSGSGTEFTLTISSLQPDDFATYYCQQYSSYSRTFGQGTKVEIK
notes: VH and VL only
B18: the Kd in experiment [1] worked out at 606 nM; in experiment [2] it was 394 nM.

B19: mAb 78 (antibody, V domains shown)
VH: EVQLVESGGGLVQPGGSLRLSCAASGFTFSSYWMSWVRQAPGKGLEWVANIKQDGSEKYYVDSVKGRFTISRDNAKNSLYLQMNSLRAEDTAVYYCARDNSPSFYWYFDLWGRGTLVTVSS
VL: DIQMTQSPSTLSASVGDRVTITCRASQSLSRWLAWYQQKPGKAPKLLIYKASSLESGVPSRFSGSGSGTEFTLTISSLQPDDFATYYCQQYYTYSRTFGQGTKVEIK
notes: VH and VL only
In the case of B19, the figures for the Kd in experiment [1] and in experiment [2] were 283 nM and 1260 nM, respectively.

B20: mAb 273 (antibody, V domains shown)
VH: EVQLVESGGGLVQPGESLKLSCTASGFTFSVSAIHWVRQASGKGLEWVGRIRSKANSYATAYVASVKGRFTLSRDDSKNTAYLQMNSLKTEDTAVYYCSSYYFVSGTYYNHWGQGTLVTVSS
VL: DIQMTQSPSSLSASVGDRVTITCRASQGIRYDLGWYQQKPGRAPKRLIHSVSSLQSGVPSRFSGSGSGTEFTLTISSLQPEDFATYYCLQHNVNPCTFGQGTKLEIK
notes: VH and VL only
As for B20, the equilibrium dissociation constant (Kd) was determined as 75 nM in experiment [1] and 46 nM in experiment [2].

The values are drawn from patent US20230295310A1 (ABCELLERA BIOLOGICS, published 2023).
